Values belong to the molecule of their own block, whether it stands above or below them.
Experiments:
[1] = tested on: CSAp antigen; assay: Competitive Binding Assay against HRP-conjugated Mu-9; set-up: species or system human; conditions: for Competition with the binding of HRP-conjugated Mu-9 to the CSAp antigen: antigen-coated wells, competing antibody 0-50 μg/ml; for Binding affinity to CSAp antigen compared with murine Mu-9: see Example 8-9
Protocol: Murine Mu-9 IgG was conjugated with horseradish peroxidase (HRP) (Sigma). The peroxidase-conjugated Mu-9 was first tested for binding on microwells coated with CSAp antigen, and the optimum concentration was determined to be 0.2 μg/ml. Peroxidase-conjugated Mu-9 was mixed with various concentrations of either murine or chimeric Mu-9 (0-50 μg/ml) before addition to the antigen-coated wells. Binding of the peroxidase-conjugated Mu-9 to the antigen in the presence of the competing antibodies was measured at 490 nm after the addition of the substrate as described earlier.
The binding affinity of hMu-9 was compared in a competitive binding assay as described in Example 6.

[2] = tested on: CSAp antigen; assay: Mu-9 Direct Binding Assay (ELISA); set-up: species or system human; conditions: wells coated with GW-39 tumor extract fraction, murine Mu-9 as standard
Protocol: Chimeric antibody supernatant (100 μl) or purified antibody (0-1 μg/ml) was added and incubated at room temperature for 1 hour. Unbound proteins were removed by washing six times with wash buffer (PBS containing 0.05% Tween 20). Purified murine Mu-9 protein was used as the standard. The bound antibodies were allowed to react with peroxidase-conjugated goat anti-human IgG, Fc fragment-specific (Jackson ImmunoResearch, West Grove Pa.) and peroxidase conjugated goat anti-mouse IgG, Fc fragment-specific antibodies (Jackson ImmunoResearch). […] The color was developed in the dark for 1 hour, the reaction was stopped with 50 μl of 4NH2SO4, and the absorbance at 490 nm was measured in a Dynatech plate reader (Dynatech Labs, Sussex, UK).
The methods for expression and binding activity assays for hMu9 were same as described for cMu9. Approximately 10 and 30 μg of linearized hMu9VkpKh and hMu9VHpG1g were co-transfected into SP2/0 cells by electroporation. Transfected cells were grown in 96-well cell culture plates in complete medium for 2 days and then selected by the addition of hygromycin at a final concentration of 500 U/ml. Typically, the colonies began to emerge 2-3 weeks after electroporation and were assayed for antibody secretion by enzyme-linked immunosorbent assay (ELISA). […] The purified antibodies (5 μg) were analyzed by SDS-PAGE on a 4-20% gradient gel under reducing conditions.

Competition with the binding of HRP-conjugated Mu-9 to the CSAp antigen [1]: competed equally well | Direct binding to CSAp antigen ([2]; listed as cMu-9): bound avidly to the CSAp antigen
B1: cMu-9-2: chimeric Mu-9 constructed from the VH and Vk2 and expressed in Sp2/0 cells (antibody, V domains shown)
VH: QVQLQESGPELVKPGASVKMSCRASGYTFTEYVITWVKQRTGQGLEWIGEIYPGSGSTSYNEKFKGKATLTADKSSNTAYMHLSSLTSEDSAVYFCTREDLGGQGTLVTVSS
VL: DILQTQTPLSLPVSLGDQASISCRSSQSIVHSNGNTYLEWYLQKPGQSPKLLIYKVSNRFSGVPDRFSGTGSGTDFTVRISRVEAEDLGLYYCFQGSRVPYTFGGGTKLEIKR
modifications: human constant regions
notes: chimeric Mu-9 constructed from the VH and Vk2 and expressed in Sp2/0 cells
Binding affinity to CSAp antigen compared with murine Mu-9 [1]: comparable binding affinity to CSAp antigen as that of murine Mu-9 | Binding affinity to CSAp antigen compared with murine Mu-9 ([1]; listed as cMu-9): comparable to that of its murine counterpart | Direct binding to CSAp antigen [2]: virtually superimposable on that of the murine Mu-9

Competition with the binding of HRP-conjugated Mu-9 to the CSAp antigen [1]: competed equally well
B2: murine Mu-9: murine monoclonal antibody of the IgG1 subtype, directed against the colon-specific antigen-p mucin (CSAp) (antibody, listed as Murine sp., V domains shown)
VH: VQLQESGPELVKPGASVKMSCRASGYTFTEYVITWVKQRTGQGLEWIGEIYPGSGSTSYNEKFKGKATLTADKSSNTAYMHLSSLTSEDSAVYFCTREDLGGQGTLVTVSS
VL: AVLMTQTPLSLPVSLGDQASISCRSSQSIVHSNGNTYLEWYLQKPGQSPKLLIYKVSNRFSGVPDRFSGTGSGTDFTVRISRVEAEDLGLYYCFQGSRVPYTFGGGTKLEIK
modifications: murine IgG1 constant regions

Source: patent publication US7641891B2, “Chimeric, human and humanized anti-CSAp monoclonal antibodies” (Immunomedics, Inc., priority 1998, dated 2010)
